Reference: the supplement of paper PMC11316812
± gives the standard deviation of the averaged measurements.

Experiments:
hTERT-HMEC = experiment: percentage of EdU-negative (G0-arrested) nuclei per well, 72 h; higher = more G0 arrest; settings: reference: sequence is the full UniProt precursor, the tested protein was the secreted form or ectodomain
MCF7 = experiment: as above; settings: reference: sequence is the full UniProt precursor, the tested protein was the secreted form or ectodomain
[1] = protein concentration 0.0225 µM
[2] = protein concentration 0.0257143 µM
[3] = protein concentration 0.257143 µM
[4] = protein concentration 0.0171429 µM
[5] = protein concentration 0.171429 µM
[6] = protein concentration 0.03125 µM
[7] = protein concentration 0.3125 µM
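Also: secreted proteins added to cultured cells, EdU pulse at the end, nuclei found by Hoechst imaging, EdU status from nuclear versus surrounding ring intensity ratio, PBS as neutral control.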

MSSENCFVAENSSLHPESGQENDATSPHFSTRHEGSFQVPVLCAVMNVVFITILIIALIALSVGQYNCPGQYTFSMPSDSHVSSCSEDWVGYQRKCYFISTVKRSWTSAQNACSEHGATLAVIDSEKDMNFLKRYAGREEHWVGLKKEPGHPWKWSNGKEFNNWFNVTGSDKCVFLKNTEVSSMECEKNLYWICNKPYK
percentage of EdU-negative (hTERT-HMEC; [1]): 5.44 ± 1.4%
percentage of EdU-negative (hTERT-HMEC; protein concentration 0.225 µM): 5.3 ± 0.56%
percentage of EdU-negative (MCF7; [1]): 23.5 ± 0.69%
percentage of EdU-negative (MCF7; protein concentration 0.225 µM): 23.6 ± 0.57%

MPAGRRGPAAQSARRPPPLLPLLLLLCVLGAPRAGSGAHTAVISPQDPTLLIGSSLLATCSVHGDPPGATAEGLYWTLNGRRLPPELSRVLNASTLALALANLNGSRQRSGDNLVCHARDGSILAGSCLYVGLPPEKPVNISCWSKNMKDLTCRWTPGAHGETFLHTNYSLKYKLRWYGQDNTCEEYHTVGPHSCHIPKDLALFTPYEIWVEATNRLGSARSDVLTLDILDVVTTDPPPDVHVSRVGGLEDQLSVRWVSPPALKDFLFQAKYQIRYRVEDSVDWKVVDDVSNQTSCRLAGLKPGTVYFVQVRCNPFGIYGSKKAGIWSEWSHPTAASTPRSERPGPGGGACEPRGGEPSSGPVRRELKQFLGWLKKHAYCSNLSFRLYDQWRAWMQKSHKTRNQDEGILPSGRRGTARGPAR
percentage of EdU-negative (hTERT-HMEC; protein concentration 0.006 µM): 4.58 ± 0.39%
percentage of EdU-negative (hTERT-HMEC; protein concentration 0.06 µM): 5.19 ± 0.85%
percentage of EdU-negative (MCF7; protein concentration 0.006 µM): 25.3 ± 0.23%
percentage of EdU-negative (MCF7; protein concentration 0.06 µM): 28.9 ± 1.2%

MIHTNLKKKFSCCVLVFLLFAVICVWKEKKKGSYYDSFKLQTKEFQVLKSLGKLAMGSDSQSVSSSSTQDPHRGRQTLGSLRGLAKAKPEASFQVWNKDSSSKNLIPRLQKIWKNYLSMNKYKVSYKGPGPGIKFSAEALRCHLRDHVNVSMVEVTDFPFNTSEWEGYLPKESIRTKAGPWGRCAVVSSAGSLKSSQLGREIDDHDAVLRFNGAPTANFQQDVGTKTTIRLMNSQLVTTEKRFLKDSLYNEGILIVWDPSVYHSDIPKWYQNPDYNFFNNYKTYRKLHPNQPFYILKPQMPWELWDILQEISPEEIQPNPPSSGMLGIIIMMTLCDQVDIYEFLPSKRKTDVCYYYQKFFDSACTMGAYHPLLYEKNLVKHLNQGTDEDIYLLGKATLPGFRTIHC
percentage of EdU-negative (hTERT-HMEC; [2]): 4.71 ± 0.62%
percentage of EdU-negative (hTERT-HMEC; [3]): 4.48 ± 0.15%
percentage of EdU-negative (MCF7; [2]): 23.7 ± 0.62%
percentage of EdU-negative (MCF7; [3]): 26.3 ± 1.7%

MTPPRLFWVWLLVAGTQGVNDGDMRLADGGATNQGRVEIFYRGQWGTVCDNLWDLTDASVVCRALGFENATQALGRAAFGQGSGPIMLDEVQCTGTEASLADCKSLGWLKSNCRHERDAGVVCTNETRSTHTLDLSRELSEALGQIFDSQRGCDLSISVNVQGEDALGFCGHTVILTANLEAQALWKEPGSNVTMSVDAECVPMVRDLLRYFYSRRIDITLSSVKCFHKLASAYGARQLQGYCASLFAILLPQDPSFQMPLDLYAYAVATGDALLEKLCLQFLAWNFEALTQAEAWPSVPTDLLQLLLPRSDLAVPSELALLKAVDTWSWGERASHEEVEGLVEKIRFPMMLPEELFELQFNLSLYWSHEALFQKKTLQALEFHTVPFQLLARYKGLNLTEDTYKPRIYTSPTWSAFVTDSSWSARKSQLVYQSRRGPLVKYSSDYFQAPSDYRYYPYQSFQTPQHPSFLFQDKRVSWSLVYLPTIQSCWNYGFSCSSDELPVLGLTKSGGSDRTIAYENKALMLCEGLFVADVTDFEGWKAAIPSALDTNSSKSTSSFPCPAGHFNGFRTVIRPFYLTNSSGVD
percentage of EdU-negative (hTERT-HMEC; [4]): 6.12 ± 0.82%
percentage of EdU-negative (hTERT-HMEC; [5]): 8.84 ± 1.8%
percentage of EdU-negative (MCF7; [4]): 23.8 ± 3.7%
percentage of EdU-negative (MCF7; [5]): 27.9 ± 1.7%

MDTIFLWSLLLLFFGSQASRCSAQKNTEFAVDLYQEVSLSHKDNIIFSPLGITLVLEMVQLGAKGKAQQQIRQTLKQQETSAGEEFFVLKSFFSAISEKKQEFTFNLANALYLQEGFTVKEQYLHGNKEFFQSAIKLVDFQDAKACAEMISTWVERKTDGKIKDMFSGEEFGPLTRLVLVNAIYFKGDWKQKFRKEDTQLINFTKKNGSTVKIPMMKALLRTKYGYFSESSLNYQVLELSYKGDEFSLIIILPAEGMDIEEVEKLITAQQILKWLSEMQEEEVEISLPRFKVEQKVDFKDVLYSLNITEIFSGGCDLSGITDSSEVYVSQVTQKVFFEINEDGSEAATSTGIHIPVIMSLAQSQFIANHPFLFIMKHNPTESILFMGRVTNPDTQEIKGRDLDSL
percentage of EdU-negative (hTERT-HMEC; [6]): 4.81 ± 0.69%
percentage of EdU-negative (hTERT-HMEC; [7]): 6.48 ± 0.78%
percentage of EdU-negative (MCF7; [6]): 24 ± 0.53%
percentage of EdU-negative (MCF7; [7]): 24.9 ± 1.8%

MVPRISAAIFIFELLGSNSEGVTDLRLWLCQPAPRCGEWTYNPLEQCCDDGVILDLNQTRLCGSSCTFWPCFQHCCLESLGSQNQTVVRFKVPGMKPDCKSSPITRICAQEYHPKSPVSRSDLI [Q6B9Z1]
percentage of EdU-negative (hTERT-HMEC; [1]): 4.65 ± 1.1%
percentage of EdU-negative (hTERT-HMEC; protein concentration 0.225 µM): 5.64 ± 0.86%
percentage of EdU-negative (MCF7; [1]): 24.3 ± 0.92%
percentage of EdU-negative (MCF7; protein concentration 0.225 µM): 24.9 ± 0.9%
